In patent publication US20060029603A1 (GlaxoSmithKline, published 2006):
Changes are numbered by the printed parent chain.

B1: H6L6 (antibody, human IgG1, kappa, V domains shown)
VH: QVQLVQSGAEVKKPGASVKVSCKASGYTFTSYWMHWVRQAPGQGLEWIGNINPSNGGTNYNEKFKSRATMTRDTSTSTAYMELSSLRSEDTAVYYCELGQGYWGQGTLVTVSS
VL: DIVMTQSPLSLPVTPGEPASISCRSSKSLLYKDGKTYLNWFLQRPGQSPQLLIYLMSTRASGVPDRFSGSGSGTDFTLKISRVEAEDVGVYYCQQLVEYPLTFGGGTKVEIKR
B2: H10L13 (antibody, V domains shown)
VH: B1 VH with V20L, R38K, M70L, R72V, T74K
VL: DIVMTQSPLSLPVTLGQPASISCRSSKSLLYKDGKTYLNWFQQRPGQSPQLLIYLMSTRASGVPDRFSGGGSGTDFTLKISRVEAEDVGVYYCQQLVEYPLTFGQGTKLEIK
B3: H5L6 (antibody, human IgG1, kappa, V domains shown)
VH: B1 VH with I48M, A68V
VL: B1 VL
B4: H700L11 (antibody, human IgG1, kappa, V domains shown)
VH: B1 VH with M70L, R72V, T74K
VL: B1 VL with M4I, P15L, E17Q, L42Q, S70G, G105Q, V109L
B5: HcL11 (antibody, human IgG1, kappa)
heavy: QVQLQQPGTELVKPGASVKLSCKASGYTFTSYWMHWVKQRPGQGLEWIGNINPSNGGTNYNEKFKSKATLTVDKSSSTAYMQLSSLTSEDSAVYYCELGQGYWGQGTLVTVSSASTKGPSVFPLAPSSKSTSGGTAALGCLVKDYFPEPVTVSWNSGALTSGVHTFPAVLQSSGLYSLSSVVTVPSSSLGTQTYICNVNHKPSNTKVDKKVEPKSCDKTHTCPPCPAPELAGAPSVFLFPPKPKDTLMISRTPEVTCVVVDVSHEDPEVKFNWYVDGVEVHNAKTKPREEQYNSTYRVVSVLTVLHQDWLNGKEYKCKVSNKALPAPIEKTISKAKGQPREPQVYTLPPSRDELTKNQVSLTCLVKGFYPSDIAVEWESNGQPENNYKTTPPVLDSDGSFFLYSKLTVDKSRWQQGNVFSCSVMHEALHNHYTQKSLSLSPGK
light: DIVITQSPLSLPVTLGQPASISCRSSKSLLYKDGKTYLNWFQQRPGQSPQLLIYLMSTRASGVPDRFSGGGSGTDFTLKISRVEAEDVGVYYCQQLVEYPLTFGQGTKLEIKRTVAAPSVFIFPPSDEQLKSGTASVVCLLNNFYPREAKVQWKVDNALQSGNSQESVTEQDSKDSTYSLSSTLTLSKADYEKHKVYACEVTHQGLSSPVTKSFNRGEC
notes: Chimeric heavy chain Hc paired with humanised light chain L11; The pairing is read from the name
B6: HcL13 (antibody, human IgG1, kappa)
heavy: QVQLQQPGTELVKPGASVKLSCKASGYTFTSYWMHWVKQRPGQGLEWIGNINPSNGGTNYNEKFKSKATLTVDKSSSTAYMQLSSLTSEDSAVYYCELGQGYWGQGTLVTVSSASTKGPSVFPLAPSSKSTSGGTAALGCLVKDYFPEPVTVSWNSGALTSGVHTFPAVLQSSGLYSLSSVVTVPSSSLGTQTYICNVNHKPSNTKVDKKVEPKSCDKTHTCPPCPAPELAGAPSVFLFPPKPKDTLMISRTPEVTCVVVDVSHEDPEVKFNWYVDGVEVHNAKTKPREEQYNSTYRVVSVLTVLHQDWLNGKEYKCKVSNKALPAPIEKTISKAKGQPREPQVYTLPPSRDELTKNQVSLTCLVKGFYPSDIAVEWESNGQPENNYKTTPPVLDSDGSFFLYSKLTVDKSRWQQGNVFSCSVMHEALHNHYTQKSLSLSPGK
light: B5 light with I4M
notes: Chimeric heavy chain Hc paired with humanised light chain L13; The pairing is read from the name
B7: H14L18 (antibody, human IgG1, kappa, V domains shown)
VH: B1 VH with K12V, V20L, R38K, M70L
VL: B1 VL with S7D, L11N, P15L, E17Q, A19V, P64S, G105Q, V109L
B8: H17L18 (antibody)
heavy: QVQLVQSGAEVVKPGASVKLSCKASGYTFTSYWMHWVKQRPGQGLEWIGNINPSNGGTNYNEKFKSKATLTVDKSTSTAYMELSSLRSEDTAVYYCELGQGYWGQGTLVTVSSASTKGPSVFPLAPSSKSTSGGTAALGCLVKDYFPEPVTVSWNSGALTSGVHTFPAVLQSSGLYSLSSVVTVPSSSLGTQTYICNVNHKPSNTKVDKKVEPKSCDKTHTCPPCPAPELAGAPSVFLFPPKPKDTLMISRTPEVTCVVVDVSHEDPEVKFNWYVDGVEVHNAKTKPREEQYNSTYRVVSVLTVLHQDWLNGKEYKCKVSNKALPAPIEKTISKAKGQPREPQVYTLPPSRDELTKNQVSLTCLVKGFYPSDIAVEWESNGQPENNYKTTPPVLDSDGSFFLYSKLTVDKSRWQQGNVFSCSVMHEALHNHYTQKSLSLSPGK
light: B5 light with I4M, S7D, L11N, A19V, Q42L, P64S, G70S
notes: copies: 2 + 2
B9: H16L17 (antibody, V domains shown)
VH: B1 VH with R38K, A40R, R67K, M70L, R72V, T74K
VL: B1 VL with S7D, P15L, E17Q, L42Q, P64S, G105Q, V109L
notes: copies: 2 + 2
B10: H17L13 (antibody, human IgG1, kappa)
heavy: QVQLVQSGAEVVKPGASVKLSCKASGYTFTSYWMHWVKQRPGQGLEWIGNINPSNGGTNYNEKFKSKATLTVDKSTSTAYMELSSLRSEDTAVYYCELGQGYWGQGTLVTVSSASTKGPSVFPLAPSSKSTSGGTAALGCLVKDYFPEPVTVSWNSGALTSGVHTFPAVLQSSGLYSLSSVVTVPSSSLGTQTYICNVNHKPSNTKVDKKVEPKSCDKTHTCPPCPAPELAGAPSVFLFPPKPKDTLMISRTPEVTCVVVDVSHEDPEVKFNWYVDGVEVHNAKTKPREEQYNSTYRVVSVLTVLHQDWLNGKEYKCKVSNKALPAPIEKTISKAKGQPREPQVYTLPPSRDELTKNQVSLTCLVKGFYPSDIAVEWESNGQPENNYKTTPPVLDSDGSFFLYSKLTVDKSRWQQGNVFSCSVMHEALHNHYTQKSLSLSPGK
light: B5 light with I4M
notes: Tested as CHO-K1 supernatant
B11: H16L13 (antibody, human IgG1, kappa)
heavy: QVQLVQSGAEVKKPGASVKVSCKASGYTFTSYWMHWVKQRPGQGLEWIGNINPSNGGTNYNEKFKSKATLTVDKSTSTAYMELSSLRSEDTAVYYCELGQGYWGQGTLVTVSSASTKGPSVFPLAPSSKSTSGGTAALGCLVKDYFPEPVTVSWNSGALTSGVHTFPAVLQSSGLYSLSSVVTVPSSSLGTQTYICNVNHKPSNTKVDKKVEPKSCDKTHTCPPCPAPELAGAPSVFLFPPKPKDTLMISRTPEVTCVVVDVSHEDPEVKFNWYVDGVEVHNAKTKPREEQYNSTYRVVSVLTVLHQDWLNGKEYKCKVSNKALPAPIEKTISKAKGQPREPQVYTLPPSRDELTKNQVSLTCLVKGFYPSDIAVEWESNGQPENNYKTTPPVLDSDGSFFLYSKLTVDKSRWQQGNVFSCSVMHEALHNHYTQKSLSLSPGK
light: B5 light with I4M
notes: Tested as CHO-K1 supernatant
B12: H15L16 (antibody, human IgG1, kappa, V domains shown)
VH: B1 VH with K12V, V20L, R38K, A40R, R67K, M70L, R72V, T76S, T91S
VL: B1 VL with L11N, P15L, E17Q, A19V, S70G, G105Q, V109L
notes: Tested as CHO-K1 supernatant
B13: H6L14 (antibody, human IgG1, kappa)
heavy: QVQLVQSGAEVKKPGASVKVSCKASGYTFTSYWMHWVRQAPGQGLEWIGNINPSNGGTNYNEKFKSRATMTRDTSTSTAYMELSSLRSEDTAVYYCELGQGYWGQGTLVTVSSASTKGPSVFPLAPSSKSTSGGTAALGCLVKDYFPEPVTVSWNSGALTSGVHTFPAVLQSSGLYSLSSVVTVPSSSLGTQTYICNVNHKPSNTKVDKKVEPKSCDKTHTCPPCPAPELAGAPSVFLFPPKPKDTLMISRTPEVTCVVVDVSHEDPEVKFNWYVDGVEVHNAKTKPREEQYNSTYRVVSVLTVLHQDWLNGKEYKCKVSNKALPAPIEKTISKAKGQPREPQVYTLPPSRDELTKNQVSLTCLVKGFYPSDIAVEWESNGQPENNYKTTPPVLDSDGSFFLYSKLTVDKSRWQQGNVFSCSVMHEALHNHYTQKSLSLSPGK
light: B5 light with I4M, Q42L
notes: Tested as CHO-K1 supernatant
B14: H6L15 (antibody, human IgG1, kappa, V domains shown)
VH: B1 VH
VL: B1 VL with P15L, E17Q, P64S, S70G, G105Q, V109L
notes: Tested as CHO-K1 supernatant
B15: H14L13 (antibody, human IgG1, kappa, V domains shown)
VH: B1 VH with K12V, V20L, R38K, M70L
VL: B1 VL with P15L, E17Q, L42Q, S70G, G105Q, V109L
notes: Tested as CHO-K1 supernatant
B16: H6L16 (antibody, human IgG1, kappa)
heavy: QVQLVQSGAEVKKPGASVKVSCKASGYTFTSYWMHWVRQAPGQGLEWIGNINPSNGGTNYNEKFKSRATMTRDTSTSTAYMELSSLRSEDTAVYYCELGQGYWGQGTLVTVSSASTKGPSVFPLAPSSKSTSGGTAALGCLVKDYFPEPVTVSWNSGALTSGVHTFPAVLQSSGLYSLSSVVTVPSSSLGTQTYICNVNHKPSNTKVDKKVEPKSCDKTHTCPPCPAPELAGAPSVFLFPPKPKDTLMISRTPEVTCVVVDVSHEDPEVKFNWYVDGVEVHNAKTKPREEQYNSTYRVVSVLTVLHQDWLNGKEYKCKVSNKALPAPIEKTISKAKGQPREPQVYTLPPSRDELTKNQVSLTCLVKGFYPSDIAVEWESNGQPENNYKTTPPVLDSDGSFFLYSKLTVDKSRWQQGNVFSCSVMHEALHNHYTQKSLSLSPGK
light: B5 light with I4M, L11N, A19V, Q42L
notes: Tested as CHO-K1 supernatant
B17: H6L17 (antibody, human IgG1, kappa, V domains shown)
VH: B1 VH
VL: B1 VL with S7D, P15L, E17Q, L42Q, P64S, G105Q, V109L
notes: Tested as CHO-K1 supernatant
B18: H18L13 (antibody, human IgG1, kappa, V domains shown)
VH: B1 VH with K12V, V20L, R38K, A40R, R67K, M70L, R72V, T74K, T76S, T91S
VL: B1 VL with P15L, E17Q, L42Q, S70G, G105Q, V109L
notes: Tested as CHO-K1 supernatant
B19: H17L16 (antibody, human IgG1, kappa)
heavy: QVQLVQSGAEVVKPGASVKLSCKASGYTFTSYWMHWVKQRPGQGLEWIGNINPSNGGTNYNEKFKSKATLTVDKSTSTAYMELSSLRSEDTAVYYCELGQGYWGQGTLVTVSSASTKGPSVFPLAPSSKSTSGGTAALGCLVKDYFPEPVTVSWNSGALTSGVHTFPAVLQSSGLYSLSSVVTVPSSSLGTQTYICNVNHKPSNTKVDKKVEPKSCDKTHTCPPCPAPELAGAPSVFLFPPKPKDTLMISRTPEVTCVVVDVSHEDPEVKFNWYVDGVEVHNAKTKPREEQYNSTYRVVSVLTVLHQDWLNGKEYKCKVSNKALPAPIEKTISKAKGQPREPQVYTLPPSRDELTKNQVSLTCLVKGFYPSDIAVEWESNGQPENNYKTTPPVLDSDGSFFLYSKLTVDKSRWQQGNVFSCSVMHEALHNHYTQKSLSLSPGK
light: B5 light with I4M, L11N, A19V, Q42L
notes: Humanised 2A10

Target: T1, GST-human NOGO-A56 (human, UniProt P08515 1-218 = GST)
T1 construct: GST-tagged fusion expressed in E. coli BL21 and purified on glutathione-sepharose; coated on ELISA plates or amine-coupled to a CM5 chip; also called hNOGO; recombinant human NOGO
T1 sequence (P08515 1-218, tags or fused parts left off): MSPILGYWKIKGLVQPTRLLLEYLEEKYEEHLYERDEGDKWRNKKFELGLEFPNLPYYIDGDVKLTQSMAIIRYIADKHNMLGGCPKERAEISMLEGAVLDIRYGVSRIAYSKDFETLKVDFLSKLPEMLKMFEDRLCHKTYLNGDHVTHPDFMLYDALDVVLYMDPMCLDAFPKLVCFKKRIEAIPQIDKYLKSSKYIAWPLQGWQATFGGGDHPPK
Test: SPR (Biacore 3000), GST-human NOGO-A56 on CM5, antibody as analyte; single experiment
Protocol: (§1) hNOGO (GST-human NOGO-A56) was immobilised to a CM5 chip by primary amine coupling using the Biacore Wizard program designed for targeted immobilisation levels. The CM5 sensor surface was activated by passing a solution of 50 mM N-hydroxy-succinimide (NHS) and 200 mM N-ethyl-N′-dimethylaminopropyl […] (EDC). Then hNOGO in sodium acetate buffer, pH5.0 or pH 4.5, was passed over the chip and immobilised. After immobilisation was complete any still activated esters were blocked by an injection of 1M ethanolamine hydrochloride, pH8.5.
(§2) The anti-NOGO mAbs were diluted down in HBS-EP (10 mM HEPES, pH 7.4, 150 mM NaCl, 3 mM EDTA, and 0.005% P-20 surfactant) and binding studies were carried out at range of defined antibody concentrations. All runs were referenced against a blanked sensor surface (one that had been activated and blocked as described earlier but had no addition of ligand). Analysis of binding was carried out using the BIAevaluation kinetic analysis software version 4.1. Biacore analysis of other antibodies of the invention essentially followed the same protocol as described herein.

Row | Binder | Kd | koff | kon
1 | B1 | 21.4 nM | 0.0254 s⁻¹ | 1.2e+06 M⁻¹ s⁻¹
2 | B2 | 12.9 nM | 0.0212 s⁻¹ | 1.64e+06 M⁻¹ s⁻¹
3 | B3 | 30.3 nM | 0.047 s⁻¹ | 1.5e+06 M⁻¹ s⁻¹
4 | B4 | 19.4 nM | 0.0233 s⁻¹ | 1.19e+06 M⁻¹ s⁻¹
5 | B5 | 3.55 nM | 0.0134 s⁻¹ | 3.78e+06 M⁻¹ s⁻¹
6 | B6 | 1.98 nM | 0.00938 s⁻¹ | 4.8e+06 M⁻¹ s⁻¹

Target: T1, GST-human NOGO-A56
Test: as above
Remark: another data set of the same source
Protocol: (§3) The binding kinetics of the anti-NOGO monoclonal antibody (mAb) to recombinantly expressed human NOGO-A (GST-human NOGO-A56) was analysed using the Biacore3000 biosensor. The hNOGO-A chip was prepared as follows:
as §1, §2

Row | Binder | Kd | koff | kon
7 | B7 | 3.6 nM | 0.00869 s⁻¹ | 2.41e+06 M⁻¹ s⁻¹

Target: T1, GST-human NOGO-A56
Test: ELISA, coated GST-human NOGO-A56, transfection supernatant, anti-human kappa-HRP, OD 490 nm
Protocol: (§4) GST-human NOGO-A56 (SEQ ID: 76) at 1 μg/ml in PBS was coated onto Nunc Immunosorp plates (100 μl per well) at 4° C. overnight. Wells were rinsed once with TBS+0.05% Tween (TBST) then incubated with 2% BSA in TBST to block non-specific binding sites at room temperature for 1 hour. Antibodies were diluted in TBST+2% BSA to 10 μg/ml and 1/2 dilutions made from this. Antibodies were added to wells in duplicate and incubated at room temperature for 1 hour. Wells were washed three times with TBST then incubated with anti-human kappa peroxidase conjugate (1:2000) for 1 hour. The wells were washed three times with TBST and then incubated with 100 μl OPD peroxidase substrate (Sigma) per well for 10 minutes. The colour reaction was stopped by the addition of 25 μl concentrated H₂SO₄. Optical density at 490 nm was measured using a plate reader. Background values read from wells with no antibody were subtracted.

Row | Binder | EC50 (read off the curve)
8 | B8 | ~0.1 µg/mL
9 | B9 | ~0.1 µg/mL

Target: T1, GST-human NOGO-A56
Test: as above
Remark: another data set of the same source
Protocol: as §4

Row | Binder | EC50 (read off the curve)
10 | B10 | ~0.06 µg/mL
11 | B11 | ~0.08 µg/mL

Target: T1, GST-human NOGO-A56
Test: SPR (Biacore) off-rate ranking, CHO-K1 transient supernatant over GST-human NOGO-A56 chip; single experiment
Protocol: as §1
The hNOGO chip was prepared as for kinetic analysis. Cell supernatants where taken directly from transient transfections of CHO-K1 cells. These were passed directly over the sensor surface and the interaction measured. A mock transfected cell supernatant was used for double referencing to remove any artefacts due to the tissue culture media. All runs were referenced against a blanked sensor surface (one that had been activated and blocked as described earlier but had no addition of ligand). Analysis of binding was carried out using the BIAevaluation kinetic analysis software version 4.1.

Row | Binder | koff
12 | B10 | 0.00931 s⁻¹
13 | B12 | 0.00604 s⁻¹
14 | B7 | 0.00835 s⁻¹
15 | B13 | 0.0457 s⁻¹
16 | B14 | 0.0211 s⁻¹
17 | B15 | 0.0138 s⁻¹
18 | B16 | 0.0114 s⁻¹
19 | B17 | 0.0158 s⁻¹
20 | B18 | 0.00907 s⁻¹
21 | B11 | 0.00907 s⁻¹

Target: T1, GST-human NOGO-A56
Test: SPR (Biacore 3000), GST-human NOGO-A56 amine-coupled to CM5, antibody as analyte; mean (SD) of four experiments
Protocol: as §3, §1, §2

Row | Binder | Kd | koff | kon
22 | B19 | 1.82 nM | 0.0061 s⁻¹ | 3.38e+06 M⁻¹ s⁻¹
